IntAct's records for PubMed 31515488

B1: Germ cell-less protein-like 1 (Homo sapiens), Q96IK5 (parent)
chain: MGSLSSRVLRQPRPALAQQAQGARAGGSARRPDTGDDAAGHGFCYCAGSHKRKRSSGSFCYCHPDSETDEDEEEGDEQQRLLNTPRRKKLKSTSKYIYQTLFLNGENSDIKICALGEEWSLHKIYLCQSGYFSSMFSGSWKESSMNIIELEIPDQNIDVEALQVAFGSLYRDDVLIKPSRVVAILAAACLLQLDGLIQQCGETMKETVNVKTVCGYYTSAGTYGLDSVKKKCLEWLLNNLMTHQNVELFKELSINVMKQLIGSSNLFVMQVEMDIYTALKKWMFLQLVPSWNGSLKQLLTETDVWFSKQRKDFEGMAFLETEQGKPFVSVFRHLRLQYIISDLASARIIEQDAVVPSEWLSSVYKQQWFAMLRAEQDSEVGPQEINKEELEGNSMRCGRKLAKDGEYCWRWTGFNFGFDLLVTYTNRYIIFKRNTLNQPCSGSVSLQPRRSIAFRLRLASFDSSGKLICSRTTGYQILTLEKDQEQVVMNLDSRLLIFPLYICCNFLYISPEKKN
partner: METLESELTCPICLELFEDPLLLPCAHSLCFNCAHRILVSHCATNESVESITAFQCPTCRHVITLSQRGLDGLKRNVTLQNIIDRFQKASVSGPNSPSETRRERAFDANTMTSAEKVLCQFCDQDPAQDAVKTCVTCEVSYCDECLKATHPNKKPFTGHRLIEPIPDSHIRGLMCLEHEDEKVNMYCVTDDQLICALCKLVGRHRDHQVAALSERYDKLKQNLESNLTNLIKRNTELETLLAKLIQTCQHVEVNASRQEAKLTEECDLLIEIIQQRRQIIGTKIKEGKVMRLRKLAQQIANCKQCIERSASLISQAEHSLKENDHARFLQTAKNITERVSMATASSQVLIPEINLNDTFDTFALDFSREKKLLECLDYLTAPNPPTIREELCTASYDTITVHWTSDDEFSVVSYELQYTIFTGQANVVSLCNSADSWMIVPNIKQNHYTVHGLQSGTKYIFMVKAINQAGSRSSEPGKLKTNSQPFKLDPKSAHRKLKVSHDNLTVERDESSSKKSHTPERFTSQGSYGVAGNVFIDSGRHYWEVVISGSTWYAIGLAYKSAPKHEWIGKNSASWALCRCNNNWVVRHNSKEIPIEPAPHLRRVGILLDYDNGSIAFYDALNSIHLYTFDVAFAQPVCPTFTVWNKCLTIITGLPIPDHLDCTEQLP
B2: Vacuolar protein sorting-associated protein 37B (Homo sapiens), Q9H9H4 (parent)
chain: MAGAGSEARFAGLSLVQLNELLEDEGQLTEMVQKMEETQNVQLNKEMTLASNRSLAEGNLLYQPQLDTLKARLTQKYQELQVLFEAYQIKKTKLDRQSSSASLETLLALLQAEGAKIEEDTENMAEKFLDGELPLDSFIDVYQSKRKLAHMRRVKIEKLQEMVLKGQRLPQALAPLPPRLPELAPTAPLPYPAPEASGPPAVAPRRIPPPPPPVPAGRLATPFTAAMSSGQAVPYPGLQCPPLPPRVGLPTQQGFSSQFVSPYPPPLPQRPPPRLPPHQPGFILQ
partner: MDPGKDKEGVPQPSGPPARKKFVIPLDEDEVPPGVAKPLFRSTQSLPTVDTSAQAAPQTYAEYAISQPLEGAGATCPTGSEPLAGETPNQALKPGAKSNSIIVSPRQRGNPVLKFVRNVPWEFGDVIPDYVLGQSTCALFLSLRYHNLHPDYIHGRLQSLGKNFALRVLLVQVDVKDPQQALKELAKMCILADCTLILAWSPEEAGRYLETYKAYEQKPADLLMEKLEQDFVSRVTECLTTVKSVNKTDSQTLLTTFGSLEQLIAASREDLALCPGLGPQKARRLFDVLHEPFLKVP
B3: Microtubule-associated tumor suppressor candidate 2 (Homo sapiens), Q5JR59-3 (parent)
chain: MGHCCCKPYNCLQCLDKTNESALVKEKELSIELANIRDEVAFHTAKCEKLQKEKEELERRFEDEVKRLGWQQQAELQELEERLQLQFEAEMARLQEEHGDQLLSIRCQHQEQVEDLTASHDAALLEMENNHTVAITILQDDHDHKVQELMSTHELEKKELEENFEKLRLSLQDQVDTLTFQSQSLRDRARRFEEALRKNTEEQLEIALAPYQHLEEDMKSLKQVLEMKNQQIHEQEKKILELEKLAEKNIILEEKIQVLQQQNEDLKARIDQNTVVTRQLSEENANLQEYVEKETQEKKRLSRTNEELLWKLQTGDPTSPIKLSPTSPVYRGSSSGPSSPARVSTTPR
partner: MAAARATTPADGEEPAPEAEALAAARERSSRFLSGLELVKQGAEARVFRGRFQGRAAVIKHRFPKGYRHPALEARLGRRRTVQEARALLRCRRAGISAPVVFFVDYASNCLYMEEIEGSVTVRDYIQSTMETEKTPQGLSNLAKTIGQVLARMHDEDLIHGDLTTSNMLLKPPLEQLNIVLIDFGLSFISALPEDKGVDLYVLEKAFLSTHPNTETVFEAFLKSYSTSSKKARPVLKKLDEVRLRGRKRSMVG
B4: THAP domain-containing protein 7 (Homo sapiens), Q9BT49 (parent)
chain: MPRHCSAAGCCTRDTRETRNRGISFHRLPKKDNPRRGLWLANCQRLDPSGQGLWDPASEYIYFCSKHFEEDCFELVGISGYHRLKEGAVPTIFESFSKLRRTTKTKGHSYPPGPAEVSRLRRCRKRCSEGRGPTTPFSPPPPADVTCFPVEEASAPATLPASPAGRLEPGLSSPFSDLLGPLGAQADEAGCSAQPSPERQPSPLEPRPVSPSAYMLRLPPPAGAYIQNEHSYQVGSALLWKRRAEAALDALDKAQRQLQACKRREQRLRLRLTKLQQERAREKRAQADARQTLKEHVQDFAMQLSSSMA
partner: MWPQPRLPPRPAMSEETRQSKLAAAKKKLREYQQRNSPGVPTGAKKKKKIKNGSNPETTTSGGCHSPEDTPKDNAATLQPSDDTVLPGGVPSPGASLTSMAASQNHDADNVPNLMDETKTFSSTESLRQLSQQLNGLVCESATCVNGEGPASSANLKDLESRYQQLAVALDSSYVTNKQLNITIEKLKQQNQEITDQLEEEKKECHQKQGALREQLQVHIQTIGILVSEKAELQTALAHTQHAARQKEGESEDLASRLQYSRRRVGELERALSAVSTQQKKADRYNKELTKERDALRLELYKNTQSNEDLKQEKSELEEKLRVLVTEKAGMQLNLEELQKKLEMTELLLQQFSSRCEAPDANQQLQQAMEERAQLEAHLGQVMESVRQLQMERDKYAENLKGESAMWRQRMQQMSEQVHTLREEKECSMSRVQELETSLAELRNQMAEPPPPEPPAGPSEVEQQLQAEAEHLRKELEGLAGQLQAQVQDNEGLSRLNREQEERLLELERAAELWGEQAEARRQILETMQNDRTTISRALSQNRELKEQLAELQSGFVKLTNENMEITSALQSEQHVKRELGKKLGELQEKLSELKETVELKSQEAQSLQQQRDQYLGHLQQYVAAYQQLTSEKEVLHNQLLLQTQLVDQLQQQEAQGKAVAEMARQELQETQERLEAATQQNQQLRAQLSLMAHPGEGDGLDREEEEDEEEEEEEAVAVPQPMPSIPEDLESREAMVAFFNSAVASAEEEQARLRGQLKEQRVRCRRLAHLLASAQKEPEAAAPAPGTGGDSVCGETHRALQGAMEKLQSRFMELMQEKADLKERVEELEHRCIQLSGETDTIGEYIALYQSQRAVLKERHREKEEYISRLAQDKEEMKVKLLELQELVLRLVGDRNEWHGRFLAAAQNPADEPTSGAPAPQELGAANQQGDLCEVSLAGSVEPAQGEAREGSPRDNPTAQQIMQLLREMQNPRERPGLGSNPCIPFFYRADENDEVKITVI
B5: Fibronectin type III and SPRY domain-containing protein 2 (Homo sapiens), A1L4K1 (parent)
chain: MEEESGEELGLDRSTPKDFHFYHMDLYDSEDRLHLFPEENTRMRKVVQAEMANESRGAGDGKAQRDLQEEVDELVHLYGLEDDHELGDEFVDENIPRTGVSEYPPYMMKRRDPAREQRDWRLSGEAAEAEDLGFGGWGSAGQCQDLREAYRYTHGRASEEYECYVIPEEEDEEEAADVFCVTCKTPIRAFQKVFDEHKEHEVIPLNEALESAKDEIHKNMYKLEKQIIEMENFANHLEEVFITVEENFGKQEQNFESHYNEILETLAQKYEEKIQALGEKKKEKLEALYGQLVSCGENLDTCKELMETIEEMCHEEKVDFIKDAVAMADRLGKFLKTKTDVEISAQPEFEDQTLDFSDVEQLMGSINTIPAPSAPVINPQVPNSATGSSVRVCWSLYSDDTVESYQLSYRPVQDSSPGTDQAEFTVTVKETYCSVTNLVPNTQYEFWVTAHNRAGPSPSSERAVYMTAPSPPIIKTKEIRSCEEAVLICWESGNLNPVDSYTVELTQAESPEASGVTESVVGIPTCESVVQLQPGRSYIIYVRALNMGGPSVRSEPATVHTIGSYFRLNKDTCHPWLTISEDGLTAVRSERRTPARELSPSDTHFTRCVAVMGNLIPVRGHHYWEVEVDEHLDYRVGVAFADVRKQEDLGANCLSWCMRHTFASSRHKYEFLHNRTTPDIRITVPPKKIGILLDYEHSKLSFFNVDLSQHLYTFSCQLHEFVHPCFSLEKPGCLKVHNGISMPKHVTFY
partner: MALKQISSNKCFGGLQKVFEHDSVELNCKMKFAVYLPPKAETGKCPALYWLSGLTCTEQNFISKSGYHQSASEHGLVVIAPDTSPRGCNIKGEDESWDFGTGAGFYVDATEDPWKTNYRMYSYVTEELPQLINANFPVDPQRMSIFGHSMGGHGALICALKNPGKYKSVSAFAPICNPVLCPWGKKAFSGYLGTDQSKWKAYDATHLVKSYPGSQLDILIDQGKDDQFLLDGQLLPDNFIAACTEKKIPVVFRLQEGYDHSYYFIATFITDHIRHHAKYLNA

Variants of: B1
Conditions: with tri18_human MID1, O15344

Row | effect of a mutation on the interaction | Variant
1 | with no effect | MGSLSSRVLRQPRPALAQQAQGARAGGSARRPDTGDDAAGHGFCYCAGSHKRKRSSGSFCYCHPDSETDEDEEEGDEQQRLLNTPRRKKLKSTSKYIYQTLFLNGENSDIKICALGEEWSLHKIYLCQSGYFSSMFSGSWKESSMNVIELEIPDQNIDVEALQVAFGSLYRDDVLIKPSRVVAILAAACLLQLDGLIQQCGETMKETVNVKTVCGYYTSAGTYGLDSVKKKCLEWLLNNLMTHQNVELFKELSINVMKQLIGSSNLFVMQVEMDIYTALKKWMFLQLVPSWNGSLKQLLTETDVWFSKQRKDFEGMAFLETEQGKPFVSVFRHLRLQYIISDLASARIIEQDAVVPSEWLSSVYKQQWFAMLRAEQDSEVGPQEINKEELEGNSMRCGRKLAKDGEYCWRWTGFNFGFDLLVTYTNRYIIFKRNTLNQPCSGSVSLQPRRSIAFRLRLASFDSSGKLICSRTTGYQILTLEKDQEQVVMNLDSRLLIFPLYICCNFLYISPEKKN [I147V]
2 | with no effect | MGSLSSRVLRQPRPALAQQAQGARAGGSARRPDTGDDAAGHGFCYCAGSHKRKRSSGSFCYCHPDSETDEDEEEGDEQQRLLNTPRRKKLKSTSKYIYQTLFLNGENSDIKICALGEEWSLHKIYLCQSGYFSSMFSGSWKESSMNIIELEIPDQNIDVEALQVAFGSLYRDDVLIKPSRVVAILAAACLLQLDGLIQQCGETMKETVNVKTVCGYYTSAGTYGLDSVKKKCLEWLLNNLMTHQNVELFKELSINVMKQLIGSSNLFVMQVEMDIYTALKQWMFLQLVPSWNGSLKQLLTETDVWFSKQRKDFEGMAFLETEQGKPFVSVFRHLRLQYIISDLASARIIEQDAVVPSEWLSSVYKQQWFAMLRAEQDSEVGPQEINKEELEGNSMRCGRKLAKDGEYCWRWTGFNFGFDLLVTYTNRYIIFKRNTLNQPCSGSVSLQPRRSIAFRLRLASFDSSGKLICSRTTGYQILTLEKDQEQVVMNLDSRLLIFPLYICCNFLYISPEKKN [K281Q]

Variants of: B2
Conditions: with ercc1_human ERCC1, P07992

Row | effect of a mutation on the interaction | Variant
3 | with no effect | MAGAGSEARFAGLSLVQLNELLEDEGQLTEMVQKMEETQNVQLNKEMTLASNRSLAEGNLLYQPQLDTLKARLTQKYQELQVLFEAYQIKKTKLDRQSSSASLETLLALLQAEGAKIEEDTENMAEKFLDGELPLDSFIDVYQSKRKLAHIRRVKIEKLQEMVLKGQRLPQALAPLPPRLPELAPTAPLPYPAPEASGPPAVAPRRIPPPPPPVPAGRLATPFTAAMSSGQAVPYPGLQCPPLPPRVGLPTQQGFSSQFVSPYPPPLPQRPPPRLPPHQPGFILQ [M151I]

Variants of: B3
Conditions: with prpk_human TP53RK

Row | effect of a mutation on the interaction | Variant
4 | with no effect | MGHCCCKPYNCLQCLDKTNESALVKEKELSIELANIRDEVAFHTAKCEKLQKEKEELERRFEDEVKRLGWQQQAELQELEERLQLQFEVEMARLQEEHGDQLLSIRCQHQEQVEDLTASHDAALLEMENNHTVAITILQDDHDHKVQELMSTHELEKKELEENFEKLRLSLQDQVDTLTFQSQSLRDRARRFEEALRKNTEEQLEIALAPYQHLEEDMKSLKQVLEMKNQQIHEQEKKILELEKLAEKNIILEEKIQVLQQQNEDLKARIDQNTVVTRQLSEENANLQEYVEKETQEKKRLSRTNEELLWKLQTGDPTSPIKLSPTSPVYRGSSSGPSSPARVSTTPR [A89V]

Variants of: B4
Conditions: with goga2_human GOLGA2, Q08379

Row | effect of a mutation on the interaction | Variant
5 | with no effect | MPRHCSAAGCCTRDTRETRNRGISFHRLPKKDNPRRGLWLANCQRLDPSGQGLWDPASEYIYFCSKHFEEDCFELVGISGYHRLKEGAVPTIFESFSKLRRTTKTKGHSYPPGPAEVSRLRRCRKRCSEGRGPTTPFSPPPPADVTCFPVEEASAPATLPASPAGRLDPGLSSPFSDLLGPLGAQADEAGCSAQPSPERQPSPLEPRPVSPSAYMLRLPPPAGAYIQNEHSYQVGSALLWKRRAEAALDALDKAQRQLQACKRREQRLRLRLTKLQQERAREKRAQADARQTLKEHVQDFAMQLSSSMA [E168D]

Variants of: B5
Conditions: with estd_human ESD

Row | effect of a mutation on the interaction | Variant
6 | with no effect | E720K
